Measurements published in publication PMC3971956.

Key:
Assay in all cases: SAXS
ABC = ABC (human, UniProt P09874 1-373)
AB = AB (human, UniProt P09874 1-232)
PARP-1 full-length = PARP-1 full-length (human, UniProt P09874 1-1014)

Measured: binding result

Chain of ABC (P09874 1-373): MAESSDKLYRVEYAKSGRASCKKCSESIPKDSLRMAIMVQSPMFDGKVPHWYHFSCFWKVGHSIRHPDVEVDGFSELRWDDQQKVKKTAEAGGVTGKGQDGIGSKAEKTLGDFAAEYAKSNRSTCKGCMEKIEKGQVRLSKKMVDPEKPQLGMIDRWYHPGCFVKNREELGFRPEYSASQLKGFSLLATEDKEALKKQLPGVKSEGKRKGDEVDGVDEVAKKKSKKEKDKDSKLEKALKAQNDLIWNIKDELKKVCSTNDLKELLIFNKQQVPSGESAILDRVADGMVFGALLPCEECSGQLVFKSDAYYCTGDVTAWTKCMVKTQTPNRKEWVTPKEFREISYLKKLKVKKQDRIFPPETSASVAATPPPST
Chain of PARP-1 full-length (P09874 whole entry): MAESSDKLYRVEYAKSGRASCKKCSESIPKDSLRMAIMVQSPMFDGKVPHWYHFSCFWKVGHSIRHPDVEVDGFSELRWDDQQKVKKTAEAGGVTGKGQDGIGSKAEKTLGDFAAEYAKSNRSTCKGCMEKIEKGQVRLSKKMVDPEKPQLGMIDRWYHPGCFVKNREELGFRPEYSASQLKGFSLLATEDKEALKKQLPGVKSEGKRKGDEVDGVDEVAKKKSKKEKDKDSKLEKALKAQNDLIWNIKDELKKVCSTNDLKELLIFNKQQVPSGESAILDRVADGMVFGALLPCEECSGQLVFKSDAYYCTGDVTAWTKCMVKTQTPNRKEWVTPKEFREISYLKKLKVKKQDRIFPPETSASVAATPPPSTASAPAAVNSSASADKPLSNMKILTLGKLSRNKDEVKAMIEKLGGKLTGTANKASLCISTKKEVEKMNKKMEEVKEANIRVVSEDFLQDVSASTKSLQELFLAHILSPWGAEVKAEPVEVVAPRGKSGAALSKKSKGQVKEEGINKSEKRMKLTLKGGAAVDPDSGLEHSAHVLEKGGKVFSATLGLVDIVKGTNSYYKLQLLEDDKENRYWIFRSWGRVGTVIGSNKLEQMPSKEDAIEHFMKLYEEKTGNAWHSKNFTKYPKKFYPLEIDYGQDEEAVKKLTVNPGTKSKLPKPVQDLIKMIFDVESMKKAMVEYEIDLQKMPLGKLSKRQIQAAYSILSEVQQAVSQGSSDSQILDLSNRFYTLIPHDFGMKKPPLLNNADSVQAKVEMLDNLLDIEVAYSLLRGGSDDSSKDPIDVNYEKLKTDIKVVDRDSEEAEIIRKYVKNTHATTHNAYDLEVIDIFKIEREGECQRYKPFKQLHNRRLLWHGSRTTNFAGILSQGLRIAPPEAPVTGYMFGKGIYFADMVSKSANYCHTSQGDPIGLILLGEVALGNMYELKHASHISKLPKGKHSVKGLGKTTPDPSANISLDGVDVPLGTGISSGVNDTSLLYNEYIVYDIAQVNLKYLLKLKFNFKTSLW
Chain of AB (P09874 1-232): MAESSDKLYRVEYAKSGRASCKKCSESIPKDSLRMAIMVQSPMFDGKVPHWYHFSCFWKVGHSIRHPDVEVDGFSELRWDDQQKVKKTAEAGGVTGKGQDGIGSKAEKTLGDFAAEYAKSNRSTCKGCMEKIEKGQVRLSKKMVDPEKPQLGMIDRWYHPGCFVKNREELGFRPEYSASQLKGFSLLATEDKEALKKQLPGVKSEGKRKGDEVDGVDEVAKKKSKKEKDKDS

B1: 8-mer DNA (dsDNA)
DNA 1: GGAATTCC
DNA 2: GGAATTCC
binds: ABC | AB | PARP-1 full-length
